Source: patent publication US5614400

How the values were obtained:
[1] = target: [1-^14 C]14:0-ACP (myristoyl-acyl carrier protein made with Escherichia coli ACP) (Escherichia coli) (UniProt P0A6A8)
[2] = target: [1-^14 C]16:0-ACP (palmitoyl-acyl carrier protein made with Escherichia coli ACP) (Escherichia coli) (UniProt P0A6A8)

Substance: 100,000×g supernatant of a T. alata endosperm homogenate (soluble Δ^6 16:0-ACP desaturase activity) (pool or library)
- Δ^6 monounsaturated product, specific activity (pmol/min/mg protein) [1]: 13
- Δ^6 monounsaturated product, specific activity (pmol/min/mg protein) [2]: 99
